In the data set the test system is Escherichia coli TOP10. The data set can be described thus: shrunken log2 fold change of peptide-encoding DNA abundance (4.5 h post-induction vs induction); higher = less antimicrobial activity (less host growth inhibition). The conditions noted are these: time post-induction: 4.5 h; library: site-saturation at positions 5, 18, 19, 20.

These results are taken from the supplement of paper PMC9112550, “Optimization of the antimicrobial peptide Bac7 by deep mutational scanning” (BMC Biology, 2022).
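Also: peptides expressed intracellularly from a pBAD plasmid library in pooled LB shake-flask culture, induced with 0.3% L-arabinose, DNA abundance read by NGS, three biological replicates, DESeq2 with apeglm shrinkage.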

With RRIRQRPPRLPRPRPRPPFPPRP, the “shrunken log2 fold change” value is 0.243.

Take RRIRCRPPRLPRPRPRPDYQPRP: the “shrunken log2 fold change” value is -0.447. In the case of RRIRQRPPRLPRPRPRPVEQPRP, the “shrunken log2 fold change” value turned out to be 0.0359.

On to RRIRMRPPRLPRPRPRPAGVPRP, for which the “shrunken log2 fold change” value came out at 0.688. In the case of RRIRKRPPRLPRPRPRPTYWPRP, the “shrunken log2 fold change” value was 0.141.

For the sequence RRIRHRPPRLPRPRPRPIPVPRP, the “shrunken log2 fold change” value was -0.037. To RRIRQRPPRLPRPRPRPHRPPRP belongs 0.0757; to RRIRPRPPRLPRPRPRPFHFPRP, -0.339. Under RRIRVRPPRLPRPRPRPSGNPRP stands -0.225; under RRIRQRPPRLPRPRPRPWHEPRP, -0.00567; under RRIRYRPPRLPRPRPRPWWSPRP, -0.0117. RRIRFRPPRLPRPRPRPIFAPRP: the “shrunken log2 fold change” value turned out to be 0.161. With RRIRQRPPRLPRPRPRPEQHPRP, the “shrunken log2 fold change” value was -0.0137.

Take RRIRARPPRLPRPRPRPIMSPRP: the “shrunken log2 fold change” value was 0.0485. For the sequence RRIRIRPPRLPRPRPRPIILPRP, the “shrunken log2 fold change” value was -0.646.

In the case of RRIRSRPPRLPRPRPRPVTQPRP, the “shrunken log2 fold change” value stood at 0.168. Take RRIRCRPPRLPRPRPRPFGPPRP: the “shrunken log2 fold change” value was -0.283. To RRIRTRPPRLPRPRPRPYQFPRP belongs 0.0636. With RRIRHRPPRLPRPRPRPTDDPRP, the “shrunken log2 fold change” value was 0.0853. With RRIRIRPPRLPRPRPRPFRVPRP, the “shrunken log2 fold change” value was -0.369. RRIRWRPPRLPRPRPRPGWAPRP: the “shrunken log2 fold change” value is 0.845. With RRIRDRPPRLPRPRPRPTYSPRP, the “shrunken log2 fold change” value is -0.757. Under RRIRTRPPRLPRPRPRPRNCPRP stands -0.176; under RRIRARPPRLPRPRPRPWARPRP, 0.0181. For the sequence RRIRNRPPRLPRPRPRPFIFPRP, the “shrunken log2 fold change” value is -0.373. Regarding RRIRRRPPRLPRPRPRPLYDPRP, the “shrunken log2 fold change” value was -0.0854. Consider RRIRCRPPRLPRPRPRPAKVPRP, for which the “shrunken log2 fold change” value was -0.243.

With RRIRWRPPRLPRPRPRPEWGPRP, the “shrunken log2 fold change” value was found to be 0.47. RRIRERPPRLPRPRPRPHVKPRP: the “shrunken log2 fold change” value is -0.767. As for RRIRIRPPRLPRPRPRPLQIPRP, the “shrunken log2 fold change” value is -0.165. As for RRIRCRPPRLPRPRPRPKCLPRP, the “shrunken log2 fold change” value came out at 0.036. As for RRIRYRPPRLPRPRPRPPYSPRP, the “shrunken log2 fold change” value is -0.45. With RRIRGRPPRLPRPRPRPTLKPRP, the “shrunken log2 fold change” value stood at 0.769.

With RRIRHRPPRLPRPRPRPKRVPRP, the “shrunken log2 fold change” value is -0.0983. As for RRIRDRPPRLPRPRPRPTFDPRP, the “shrunken log2 fold change” value stood at 0.853. As for RRIRHRPPRLPRPRPRPCQPPRP, the “shrunken log2 fold change” value was -0.0284.

As for RRIRVRPPRLPRPRPRPQHEPRP, the “shrunken log2 fold change” value was -0.245. For RRIRERPPRLPRPRPRPVMSPRP, the “shrunken log2 fold change” value was 0.0484.

For the sequence RRIRIRPPRLPRPRPRPLQYPRP, the “shrunken log2 fold change” value is -0.591. As for RRIRKRPPRLPRPRPRPPSTPRP, the “shrunken log2 fold change” value is 0.661. To RRIRFRPPRLPRPRPRPHCVPRP belongs -0.216. Take RRIRHRPPRLPRPRPRPHRGPRP: the “shrunken log2 fold change” value was -0.0108. Consider RRIRRRPPRLPRPRPRPCLTPRP, for which the “shrunken log2 fold change” value was 0.0744. For the sequence RRIRQRPPRLPRPRPRPVLQPRP, the “shrunken log2 fold change” value was -0.107. As to RRIRNRPPRLPRPRPRPDKQPRP, the “shrunken log2 fold change” value was determined as 0.00349. As to RRIRERPPRLPRPRPRPVSGPRP, the “shrunken log2 fold change” value came to 0.386.

For the sequence RRIRFRPPRLPRPRPRPAASPRP, the “shrunken log2 fold change” value stood at 0.0986. For the sequence RRIRSRPPRLPRPRPRPQHPPRP, the “shrunken log2 fold change” value is -0.239. RRIRHRPPRLPRPRPRPKDCPRP: the “shrunken log2 fold change” value turned out to be 0.00375. RRIRFRPPRLPRPRPRPGHKPRP: the “shrunken log2 fold change” value is 0.0531.

Take RRIRPRPPRLPRPRPRPNKQPRP: the “shrunken log2 fold change” value stood at 0.0754.

For RRIRYRPPRLPRPRPRPFKYPRP, the “shrunken log2 fold change” value is -0.689. On to RRIRGRPPRLPRPRPRPRYCPRP, for which the “shrunken log2 fold change” value stood at 0.295.

Take RRIRRRPPRLPRPRPRPHKNPRP: the “shrunken log2 fold change” value was found to be 0.126. Regarding RRIRCRPPRLPRPRPRPNYTPRP, the “shrunken log2 fold change” value was -0.879. In the case of RRIRPRPPRLPRPRPRPPNRPRP, the “shrunken log2 fold change” value worked out at 0.29. As for RRIRQRPPRLPRPRPRPKMDPRP, the “shrunken log2 fold change” value was -0.111.

Turning to RRIRPRPPRLPRPRPRPRAVPRP, the “shrunken log2 fold change” value came to 1.68. To RRIRPRPPRLPRPRPRPYKCPRP belongs -0.0297; to RRIRARPPRLPRPRPRPFNDPRP, -0.147; to RRIRRRPPRLPRPRPRPFYHPRP, 0.0115.

As to RRIRHRPPRLPRPRPRPCCGPRP, the “shrunken log2 fold change” value was -0.114. As to RRIRKRPPRLPRPRPRPSRKPRP, the “shrunken log2 fold change” value was 0.0758.

For the sequence RRIRPRPPRLPRPRPRPKVMPRP, the “shrunken log2 fold change” value worked out at 0.294. RRIRMRPPRLPRPRPRPHQYPRP: the “shrunken log2 fold change” value is -0.41. RRIRGRPPRLPRPRPRPLDSPRP: the “shrunken log2 fold change” value was found to be 0.217. For the sequence RRIRPRPPRLPRPRPRPEQTPRP, the “shrunken log2 fold change” value was 0.0268. On to RRIRDRPPRLPRPRPRPRMRPRP, for which the “shrunken log2 fold change” value amounted to 0.984. On to RRIRGRPPRLPRPRPRPWRQPRP, for which the “shrunken log2 fold change” value came out at 0.0568. For the sequence RRIRVRPPRLPRPRPRPERFPRP, the “shrunken log2 fold change” value was -0.023. Consider RRIRHRPPRLPRPRPRPTLHPRP, for which the “shrunken log2 fold change” value was 0.0488.

Take RRIRGRPPRLPRPRPRPNVIPRP: the “shrunken log2 fold change” value worked out at 0.211. RRIRTRPPRLPRPRPRPDLHPRP: the “shrunken log2 fold change” value is -0.174. Turning to RRIRGRPPRLPRPRPRPRTHPRP, the “shrunken log2 fold change” value amounted to 0.666. For the sequence RRIRPRPPRLPRPRPRPMTCPRP, the “shrunken log2 fold change” value was -0.251. RRIRERPPRLPRPRPRPIAHPRP: the “shrunken log2 fold change” value is -0.171. As for RRIRDRPPRLPRPRPRPDEQPRP, the “shrunken log2 fold change” value turned out to be 0.0528. On to RRIRVRPPRLPRPRPRPICCPRP, for which the “shrunken log2 fold change” value was -0.0831. To RRIRCRPPRLPRPRPRPAHIPRP belongs -0.0847; to RRIRTRPPRLPRPRPRPSYSPRP, -0.316; to RRIRHRPPRLPRPRPRPQSPPRP, 0.0863.

As for RRIRVRPPRLPRPRPRPANQPRP, the “shrunken log2 fold change” value was -0.186. To RRIRNRPPRLPRPRPRPRCNPRP belongs -0.0207. Take RRIRARPPRLPRPRPRPKPVPRP: the “shrunken log2 fold change” value is 0.882. To RRIRYRPPRLPRPRPRPMLTPRP belongs -0.0378. RRIRSRPPRLPRPRPRPPELPRP: the “shrunken log2 fold change” value is 0.629. Consider RRIRHRPPRLPRPRPRPWDPPRP, for which the “shrunken log2 fold change” value is -0.243. As to RRIRSRPPRLPRPRPRPCVTPRP, the “shrunken log2 fold change” value is 0.0116. For RRIRHRPPRLPRPRPRPATYPRP, the “shrunken log2 fold change” value is -0.501. With RRIRFRPPRLPRPRPRPSEPPRP, the “shrunken log2 fold change” value is -0.0424.

As to RRIRKRPPRLPRPRPRPMGQPRP, the “shrunken log2 fold change” value was determined as 0.0265. For RRIRYRPPRLPRPRPRPFQMPRP, the “shrunken log2 fold change” value was -0.143.

Consider RRIRLRPPRLPRPRPRPHCRPRP, for which the “shrunken log2 fold change” value is -0.254. As for RRIRQRPPRLPRPRPRPNPSPRP, the “shrunken log2 fold change” value is -0.042. With RRIRVRPPRLPRPRPRPSTDPRP, the “shrunken log2 fold change” value was -0.0464.

For the sequence RRIRFRPPRLPRPRPRPGSNPRP, the “shrunken log2 fold change” value was -0.624. To RRIRRRPPRLPRPRPRPMGTPRP belongs 0.241; to RRIRNRPPRLPRPRPRPRQAPRP, 0.0453; to RRIRRRPPRLPRPRPRPARAPRP, 0.523.

Take RRIRQRPPRLPRPRPRPPQEPRP: the “shrunken log2 fold change” value is -0.00749. Turning to RRIRKRPPRLPRPRPRPCLYPRP, the “shrunken log2 fold change” value was -0.0745. To RRIRDRPPRLPRPRPRPMWFPRP belongs 0.0563; to RRIRMRPPRLPRPRPRPHFDPRP, -0.0378. For RRIRIRPPRLPRPRPRPYEKPRP, the “shrunken log2 fold change” value is -0.352. As for RRIRDRPPRLPRPRPRPTTLPRP, the “shrunken log2 fold change” value stood at 0.525. In the case of RRIRTRPPRLPRPRPRPGNRPRP, the “shrunken log2 fold change” value came out at 0.192. Consider RRIRARPPRLPRPRPRPLGLPRP, for which the “shrunken log2 fold change” value worked out at 0.353. Take RRIRYRPPRLPRPRPRPMWNPRP: the “shrunken log2 fold change” value is -0.302. To RRIRARPPRLPRPRPRPVKMPRP belongs 0.163. Consider RRIRYRPPRLPRPRPRPFKCPRP, for which the “shrunken log2 fold change” value is -0.135.

Consider RRIRFRPPRLPRPRPRPQAQPRP, for which the “shrunken log2 fold change” value was 0.023.

Take RRIRLRPPRLPRPRPRPKCPPRP: the “shrunken log2 fold change” value was -0.193. Turning to RRIRYRPPRLPRPRPRPDWDPRP, the “shrunken log2 fold change” value was -0.543. Under RRIRARPPRLPRPRPRPHQRPRP stands 0.0964; under RRIRFRPPRLPRPRPRPHAIPRP, 0.00598; under RRIRPRPPRLPRPRPRPRFPPRP, 0.233. RRIRTRPPRLPRPRPRPQHMPRP: the “shrunken log2 fold change” value was -0.518. As to RRIRSRPPRLPRPRPRPCQRPRP, the “shrunken log2 fold change” value is -0.0305.

For RRIRKRPPRLPRPRPRPTWNPRP, the “shrunken log2 fold change” value was determined as 0.197. To RRIRMRPPRLPRPRPRPYQSPRP belongs -0.118; to RRIRPRPPRLPRPRPRPNVRPRP, -0.163; to RRIRERPPRLPRPRPRPVRMPRP, 0.11.

Consider RRIRLRPPRLPRPRPRPQGEPRP, for which the “shrunken log2 fold change” value turned out to be 0.125. Consider RRIRIRPPRLPRPRPRPEHIPRP, for which the “shrunken log2 fold change” value was -0.142. As for RRIRCRPPRLPRPRPRPSFDPRP, the “shrunken log2 fold change” value is -0.282.
